Assay results as given in publication PMC8101287 (2020).
“And” between values parts separate entries of the source, which are not always exact repeats. Equal entries are not always repeated. Where two headings read alike, the source gives them in different places.

Assays:
[1] = biological target: T1, HLA‐DR1 (HLA‐DRA1*01:01/HLA‐DRB*01:01) complexed with the HA_(306‐318) peptide, refolded from E. coli (human | ); test: SPR
[2] = biological target: T1, HLA‐DR1 (HLA‐DRA1*01:01/HLA‐DRB*01:01) …; test: SPR; remark: listed apart in the source

B1: LAG‐3:Fc fusion protein (four extracellular domains of LAG‐3 and the Fc domain of IgG) (Fc fusion)
chain: LQPGAEVPVVWAQEGAPAQLPCSPTIPLQDLSLLRRAGVTWQHQPDSGPPAAAPGHPLAPGPHPAAPSSWGPRPRRYTVLSVGPGGLRSGRLPLQPRVQLDERGRQRGDFSLWLRPARRADAGEYRAAVHLRDRALSCRLRLRLGQASMTASPPGSLRASDWVILNCSFSRPDRPASVHWFRNRGQGRVPVRESPHHHLAESFLFLPQVSPMDSGPWGCILTYRDGFNVSIMYNLTVLGLEPPTPLTVYAGAGSRVGLPCRLPAGVGTRSFLTAKWTPPGGGPDLLVTGDNGDFTLRLEDVSQAQAGTYTCHIHLQEQQLNATVTLAIITVTPKSFGSPGSLGKLLCEVTPVSGQERFVWSSLDTPSQRSFSGPWLEAQEAQLLSQPWQCQLYQGERLLGAAVYFTELSSPGAQRSGRAPGALPAGHL
Kd [1]: 3 µM and 1 µM | Kd [2]: 7.3 µM
